Assay results reported in paper PMC11104609, “Discovery of allosteric regulators with clinical potential to stabilize alpha-L-iduronidase in mucopolysaccharidosis type I” (PLOS ONE, 2024).

How the values were obtained:
IDUA [1] = target: T1, IDUA (Homo sapiens, UniProt P35475); assay: IDUA enzymatic activity in patient-derived fibroblasts after rhIDUA with or without compound (4-MUI substrate); assay type: cell-based; set-up: Institute of Biotechnology and Biomedicine, Autonomous University of Barcelona (UAB), Bellaterra, Spain; details: rhIDUA 1.25 nM alone
T1 sequence (P35475 28-653): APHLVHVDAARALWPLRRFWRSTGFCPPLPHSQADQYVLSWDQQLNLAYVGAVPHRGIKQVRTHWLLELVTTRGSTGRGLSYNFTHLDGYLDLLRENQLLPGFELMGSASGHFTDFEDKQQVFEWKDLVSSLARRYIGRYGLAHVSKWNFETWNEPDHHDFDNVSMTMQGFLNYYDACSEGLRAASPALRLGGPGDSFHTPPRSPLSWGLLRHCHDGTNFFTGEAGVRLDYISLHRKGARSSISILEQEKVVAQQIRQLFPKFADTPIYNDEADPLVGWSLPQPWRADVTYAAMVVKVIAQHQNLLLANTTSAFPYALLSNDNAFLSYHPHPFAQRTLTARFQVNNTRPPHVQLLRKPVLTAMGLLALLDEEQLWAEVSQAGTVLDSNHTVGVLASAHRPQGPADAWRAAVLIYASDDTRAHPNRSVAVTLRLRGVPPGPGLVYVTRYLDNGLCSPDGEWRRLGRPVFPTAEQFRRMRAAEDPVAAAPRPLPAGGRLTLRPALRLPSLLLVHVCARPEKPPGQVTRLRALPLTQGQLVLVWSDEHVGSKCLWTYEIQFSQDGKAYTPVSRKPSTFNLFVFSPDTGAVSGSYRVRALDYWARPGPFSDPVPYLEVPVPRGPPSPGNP
Experimental: Fibroblasts derived from Hurler (GM00798) and Hurler/Scheie patients (GM02845, GM00512, GM01898, GM00963) were purchased from Coriell (Camden, NJ). Fibroblasts were cultured in Dulbecco’s modified Eagle’s medium (DMEM, Gibco) supplemented with 10% inactivated fetal bovine serum (FBS, Gibco) and 1% penicillin-streptomycin (Thermo Fisher Scientific, Waltham, MA, USA) (growth medium) at 37 °C under 5% CO2. The effect of the protein and/or compound in enhancing IDUA enzymatic activity was evaluated as follows: The specified patient-derived fibroblasts were seeded at 4x10^4 cells per well in 12-well cell culture plates in growth medium. Subsequently, cells were incubated with indicated dose of rhIDUA (obtained from the Institute of Biotechnology and Biomedicine in the UAB, Bellaterra, Spain) in the absence or presence of the compound #18 (GT-01803) for the specified incubation times at 50 μM. After incubation, cells were washed with PBS and detached using Trypsin-EDTA solution (Sigma Aldrich, St. Louis, MO, USA) to prepare cell pellets. The pellets were stored at -80 °C until activity assays were performed. IDUA activity in cell lysates was measured using 4-methylumbelliferyl IDUA substrate (4-MUI, Glycosynth Ltd., #44076, Warrington, UK). Briefly, lysates were resuspended in 120 μL of 0.9% NaCl containing 0.01% Triton X-100 lysis buffer to promote membrane disruption. Next, the cell suspension was sonicated and centrifuged to pellet insoluble materials. Then, 25 μL of lysates were mixed with 25 μL of 200 μM 4-MUI substrate solution in 0.4 M sodium formate, pH 3.5, 0.2% Triton X-100 buffer and incubated for 60 mins at 37 °C. The reaction was stopped by adding 200 μL of 0.5 M Glycine/0.3 M NaOH buffer, pH 10. The liberated 4-methylumbelliferone (4-MU) was measured on a Glomax® Discover microplate reader with excitation at 340 nm and emission at 460 nm. Protein quantification was determined using Pierce BCA Protein Assay Kit (Thermo Fisher Scientific, Waltham, MA, USA). Measurements were interpolated in a 4-MU standard curve and normalised by protein quantity.
For Fig 6A, rhIDUA concentrations of 0.187, 0.375 and 1.25 nM were tested in GM02845 fibroblasts over a 96-hour period, both in the presence and absence of the compound #18 (GT-01803) at 50 μM. In Fig 6B, 1.25 nM of rhIDUA was evaluated in GM02845, GM00798, GM00512, and GM00963 fibroblasts for 96h, with and without the compound #18 (GT-01803) at 50 μM. In Fig 6C, a concentration of 1.25 nM of the protein was applied to fibroblasts for 4, 8, 24 and 96h, with and without the compound #18 (GT-01803) at 50 μM.

IDUA [2] = target: T1, IDUA; assay: Denaturation prevention (isothermal denaturation) assay with SYPRO Orange; assay type: binding; set-up: purchased R&D Systems; details: pH 7.0 and 37 °C, no compound
Experimental: The capacity of the compounds to stabilize IDUA in neutral pH buffer was assessed using the denaturation prevention assay. Briefly, rhIDUA (obtained from the Institute of Biotechnology and Biomedicine in the UAB, Bellaterra, Spain) was combined to a final concentration of 1 μM with 5X SYPRO Orange and 30 μM of the corresponding compound in a final reaction volume of 25 μL in 100 mM Hepes, 20 mM MgCl2, pH 7 buffer, or 25 mM NaAc, 150 mM NaCl, pH 5.2. Reactions were incubated at 37 °C, and SYPRO Orange fluorescence intensity was monitored at the indicated time points using Glomax® Discover microplate reader (Promega, Madison, WI, USA). Two independent experiments in triplicate at one concentration (30μM) of compound #18 (GT-01803) were performed for denaturation prevention assays.

B1: rhIDUA: recombinant human alpha-L-iduronidase, enzyme replacement therapy protein (protein, UniProt P35475 28-653, looked up)
Alpha-L-iduronidase: APHLVHVDAARALWPLRRFWRSTGFCPPLPHSQADQYVLSWDQQLNLAYVGAVPHRGIKQVRTHWLLELVTTRGSTGRGLSYNFTHLDGYLDLLRENQLLPGFELMGSASGHFTDFEDKQQVFEWKDLVSSLARRYIGRYGLAHVSKWNFETWNEPDHHDFDNVSMTMQGFLNYYDACSEGLRAASPALRLGGPGDSFHTPPRSPLSWGLLRHCHDGTNFFTGEAGVRLDYISLHRKGARSSISILEQEKVVAQQIRQLFPKFADTPIYNDEADPLVGWSLPQPWRADVTYAAMVVKVIAQHQNLLLANTTSAFPYALLSNDNAFLSYHPHPFAQRTLTARFQVNNTRPPHVQLLRKPVLTAMGLLALLDEEQLWAEVSQAGTVLDSNHTVGVLASAHRPQGPADAWRAAVLIYASDDTRAHPNRSVAVTLRLRGVPPGPGLVYVTRYLDNGLCSPDGEWRRLGRPVFPTAEQFRRMRAAEDPVAAAPRPLPAGGRLTLRPALRLPSLLLVHVCARPEKPPGQVTRLRALPLTQGQLVLVWSDEHVGSKCLWTYEIQFSQDGKAYTPVSRKPSTFNLFVFSPDTGAVSGSYRVRALDYWARPGPFSDPVPYLEVPVPRGPPSPGNP
IDUA [1]; GM02845 fibroblasts (Fig 6C)
  mean IDUA cell activity at 96h: 75.63 nmol/h/mg
IDUA [1]; GM02845 fibroblasts, 96 h (Fig 6A)
  mean IDUA cell activity: 53.37 nmol/h/mg
IDUA [2]
  stability of rhIDUA at physiological conditions: unstable
